We go through one substance from IntAct's records for PubMed 30017192.

The target of test [1] is kpca_human PRKCA (UniProt P17252).
For test [2], the target named is kapca_human PRKACA (UniProt P17612).

For “Serine/threonine-protein kinase pim-1 (Homo sapiens), P11309-2 K158R”, the “effect of a mutation on the interaction” value in test [1] and in test [2] was “with no effect” throughout.
